Here are results for two molecules from publication PMC10156175 (Cell, 2023).

In assay [1] the target is CUL1 (human, UniProt Q13616). The assay is described as follows: cryo-EM structure.
The target of assay [2] is SCF^FBXW7 (CUL1-RBX1-SKP1-FBXW7), pre-formed (human, UniProt Q13616;P62877;P63208;Q969H0, for the native gels: labelled with fluorescein (site not stated)). The assay is described as follows: native gel or EMSA.
For assay [3], the target named is SCF^SKP2 (CUL1-RBX1-SKP1-SKP2), pre-formed (human, UniProt Q13616;P62877;P63208;Q13309). The assay can be described thus: native gel or EMSA. (In general: Mobility shift assays separate free from complexed probe on a gel.)
Sequence of SCF^SKP2 (CUL1-RBX1-SKP1-SKP2), pre-formed (Q13616 whole entry, chain 1 of 4): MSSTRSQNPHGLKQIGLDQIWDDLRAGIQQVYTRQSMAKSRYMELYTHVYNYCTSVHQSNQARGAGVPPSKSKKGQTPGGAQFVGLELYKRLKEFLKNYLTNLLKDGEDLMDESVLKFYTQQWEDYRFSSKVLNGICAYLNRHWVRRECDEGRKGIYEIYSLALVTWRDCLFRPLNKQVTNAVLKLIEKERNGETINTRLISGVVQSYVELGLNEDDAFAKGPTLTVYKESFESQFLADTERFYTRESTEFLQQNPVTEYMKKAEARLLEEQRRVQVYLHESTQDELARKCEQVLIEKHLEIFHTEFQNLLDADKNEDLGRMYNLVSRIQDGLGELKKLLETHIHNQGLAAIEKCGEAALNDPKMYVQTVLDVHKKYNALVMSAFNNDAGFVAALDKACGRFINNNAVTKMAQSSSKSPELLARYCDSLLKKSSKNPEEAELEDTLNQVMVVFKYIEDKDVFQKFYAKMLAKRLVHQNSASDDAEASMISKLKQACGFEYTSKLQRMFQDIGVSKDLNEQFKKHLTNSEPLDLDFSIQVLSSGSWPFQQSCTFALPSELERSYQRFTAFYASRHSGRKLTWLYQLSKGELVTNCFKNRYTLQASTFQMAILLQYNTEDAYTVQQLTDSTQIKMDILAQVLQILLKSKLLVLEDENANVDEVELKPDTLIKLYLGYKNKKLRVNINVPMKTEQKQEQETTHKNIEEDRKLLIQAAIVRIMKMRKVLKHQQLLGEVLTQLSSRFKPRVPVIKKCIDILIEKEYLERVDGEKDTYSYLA
Sequence of SCF^SKP2 (CUL1-RBX1-SKP1-SKP2), pre-formed (P62877 5-108, chain 2 of 4): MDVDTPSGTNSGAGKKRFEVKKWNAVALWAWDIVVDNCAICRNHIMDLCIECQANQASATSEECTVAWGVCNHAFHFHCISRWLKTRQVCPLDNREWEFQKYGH
Sequence of SCF^SKP2 (CUL1-RBX1-SKP1-SKP2), pre-formed (P63208 whole entry, chain 3 of 4): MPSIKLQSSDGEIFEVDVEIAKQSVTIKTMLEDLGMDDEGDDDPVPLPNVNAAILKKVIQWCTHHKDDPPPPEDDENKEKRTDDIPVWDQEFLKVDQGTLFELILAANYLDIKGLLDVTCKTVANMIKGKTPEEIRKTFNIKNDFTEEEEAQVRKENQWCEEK
Sequence of SCF^SKP2 (CUL1-RBX1-SKP1-SKP2), pre-formed (Q13309 whole entry, chain 4 of 4): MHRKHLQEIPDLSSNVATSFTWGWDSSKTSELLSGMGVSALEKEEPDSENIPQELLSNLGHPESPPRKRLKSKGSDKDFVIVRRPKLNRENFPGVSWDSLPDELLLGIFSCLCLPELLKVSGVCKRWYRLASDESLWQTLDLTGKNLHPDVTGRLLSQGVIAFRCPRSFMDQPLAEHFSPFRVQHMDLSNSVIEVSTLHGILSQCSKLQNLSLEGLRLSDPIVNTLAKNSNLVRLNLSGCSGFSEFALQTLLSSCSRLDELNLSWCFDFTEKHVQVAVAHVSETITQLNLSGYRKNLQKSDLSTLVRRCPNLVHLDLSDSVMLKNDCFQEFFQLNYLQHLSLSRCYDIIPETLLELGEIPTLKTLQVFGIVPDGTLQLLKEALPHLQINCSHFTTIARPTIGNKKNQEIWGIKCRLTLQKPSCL

Sequence of CUL1 (Q13616 whole entry): as the sequence (Q13616 whole entry, chain 1 of 4) above
Sequence of SCF^FBXW7 (CUL1-RBX1-SKP1-FBXW7), pre-formed (Q13616 whole entry, chain 1 of 3): as the sequence (Q13616 whole entry, chain 1 of 4) above
Sequence of SCF^FBXW7 (CUL1-RBX1-SKP1-FBXW7), pre-formed (P62877 5-108, chain 2 of 3): as the sequence (P62877 5-108, chain 2 of 4) above
Sequence of SCF^FBXW7 (CUL1-RBX1-SKP1-FBXW7), pre-formed (P63208 whole entry, chain 3 of 3): as the sequence (P63208 whole entry, chain 3 of 4) above

B1: FBXW7 (263-C) (domain or fragment)
chain: TQVKHMMQVIEPQFQRDFISLLPKELALYVLSFLEPKDLLQAAQTCRYWRILAEDNLLWREKCKEEGIDEPLHIKRRKVIKPGFIHSPWKSAYIRQHRIDTNWRRGELKSPKVLKGHDDHVITCLQFCGNRIVSGSDDNTLKVWSAVTGKCLRTLVGHTGGVWSSQMRDNIIISGSTDRTLKVWNAETGECIHTLYGHTSTVRCMHLHEKRVVSGSRDATLRVWDIETGQCLHVLMGHVAAVRCVQYDGRRVVSGAYDFMVKVWDPETETCLHTLQGHTNRVYSLQFDGIHVVSGSLDTSIRVWDVETGNCIHTLTGHQSLTSGMELKDNILVSGNADSTVKIWDIKTGQCLQTLQGPNKHQSAVTCLQFNKNFVITSSDDGTVKLWDLKTGEFIRNLVTLESGGSGGVVWRIRASNTKLVCAVGSRNGTEETKLLVLDFDVDMK
In the case of B1, in assay [1], the binding result was “binds”.

B2: CAND1 (Cullin-associated NEDD8-dissociated protein 1) (natural protein)
chain: MASASYHISNLLEKMTSSDKDFRFMATNDLMTELQKDSIKLDDDSERKVVKMILKLLEDKNGEVQNLAVKCLGPLVSKVKEYQVETIVDTLCTNMLSDKEQLRDISSIGLKTVIGELPPASSGSALAANVCKKITGRLTSAIAKQEDVSVQLEALDIMADMLSRQGGLLVNFHPSILTCLLPQLTSPRLAVRKRTIIALGHLVMSCGNIVFVDLIEHLLSELSKNDSMSTTRTYIQCIAAISRQAGHRIGEYLEKIIPLVVKFCNVDDDELREYCIQAFESFVRRCPKEVYPHVSTIINICLKYLTYDPNYNYDDEDEDENAMDADGGDDDDQGSDDEYSDDDDMSWKVRRAAAKCLDAVVSTRHEMLPEFYKTVSPALISRFKEREENVKADVFHAYLSLLKQTRPVQSWLCDPDAMEQGETPLTMLQSQVPNIVKALHKQMKEKSVKTRQCCFNMLTELVNVLPGALTQHIPVLVPGIIFSLNDKSSSSNLKIDALSCLYVILCNHSPQVFHPHVQALVPPVVACVGDPFYKITSEALLVTQQLVKVIRPLDQPSSFDATPYIKDLFTCTIKRLKAADIDQEVKERAISCMGQIICNLGDNLGSDLPNTLQIFLERLKNEITRLTTVKALTLIAGSPLKIDLRPVLGEGVPILASFLRKNQRALKLGTLSALDILIKNYSDSLTAAMIDAVLDELPPLISESDMHVSQMAISFLTTLAKVYPSSLSKISGSILNELIGLVRSPLLQGGALSAMLDFFQALVVTGTNNLGYMDLLRMLTGPVYSQSTALTHKQSYYSIAKCVAALTRACPKEGPAVVGQFIQDVKNSRSTDSIRLLALLSLGEVGHHIDLSGQLELKSVILEAFSSPSEEVKSAASYALGSISVGNLPEYLPFVLQEITSQPKRQYLLLHSLKEIISSASVVGLKPYVENIWALLLKHCECAEEGTRNVVAECLGKLTLIDPETLLPRLKGYLISGSSYARSSVVTAVKFTISDHPQPIDPLLKNCIGDFLKTLEDPDLNVRRVALVTFNSAAHNKPSLIRDLLDTVLPHLYNETKVRKELIREVEMGPFKHTVDDGLDIRKAAFECMYTLLDSCLDRLDIFEFLNHVEDGLKDHYDIKMLTFLMLVRLSTLCPSAVLQRLDRLVEPLRATCTTKVKANSVKQEFEKQDELKRSAMRAVAALLTIPEAEKSPLMSEFQSQISSNPELAAIFESIQKDSSSTNLESMDTS
modifications: for the native gels only: TAMRA-(PEG)5-LPETGG peptide joined to the amino-terminus by sortase
Regarding B2, the binding result in assay [2] and in assay [3] was “binds” each time.
